Positions count from the first letter of the chain named. In names and notes the source's numbering stands. Read-outs that look alike come from different tables or passages of the source. Each block holds one molecule with its values, some of them ahead of it.
Legend:
[1] = Ca2+ sensitivity curves of reconstituted photoproteins (L/Lmax vs free Ca2+); assay type: biochemical; details: for EC50: read-out: Calcium sensitivity, EC50
Protocol: For in vitro reconstitution, the purified and concentrated samples of apoaequorin and redquorin mutant proteins were buffer-exchanged to 50 mM Tris-HCl (pH 7.5), 150 mM NaCl, 10 mM EGTA, 5 mM ß-mercaptoethanol, supplemented with 5 μM CLZ-f or CLZ-native and incubated overnight at 4° C., in the dark. The next day, samples were passed through molecular weight cut-offs (AmiconUitra MWCO, 10K and 50K, from Millipore), then resuspended in Zero-Ca^2+ buffer (30 mM MOPS, 100 mM KCl and 10 mM EGTA, pH 7.2) for calcium affinity, emission decay kinetics and spectral analysis assays. As for in cellulo reconstitution, HEK cells transiently expressing the proteins of apoaequorin and aporedquorin mutants were washed twice with Hank's Balanced Salt Solution (HBSS) and incubated in the dark, with 4 μM of the desired CLZ diluted in OptiMEM I medium (Gibco), for 2-3h at 37° C. and 5% CO2. Cells were washed once and maintained in HBSS at 37° C. for 20 min before the experiment.
Functional Analysis of Aequorin Mutants and Fusions Ca^2+ Sensitivity Curves.
Purified and reconstituted samples with CLZ-f or CLZ-native already buffered-exchanged to zero-calcium buffer ensured to minimize calcium contamination that could interfere with the measurements. Fifteen microliter aliquot of photoprotein samples (concentration range, 50 to 90 ng/μl) was placed in a home-made luminometer and mixed with 300 μl solution containing the desired concentration of free-Ca^2+. The solutions of EGTA-buffered with varying free-Ca^2+ prepared according to the manufacturer instruction for the kit (Molecular Probes, Invitrogen). Integration of the luminescence emission (per second) was measured for 20 seconds (background) before injecting a solution with known [free-Ca^2+] and lasted until stable or decaying signal (at final-phase) was obtained. At this point, 400 μl of a saturating calcium solution (30 mM MOPS, 100 mM CaCl2, pH 7.2) was rapidly injected (less than 30 ms) and light integration continued until all aequorin had been consumed and light intensity had gone back to background signal. Luminescence intensity (L) at different [Ca^2+] was taken as the response peak value in case of decaying signal or as the stable value in case of stable emission. Lmax, was measured by integrating all remaining luminescence signal from that moment (L value) to the end of the experiment. The EC50 values were extracted from a sigmoidal dose-response fit (variable slope) using GraphPad Prism software.

[2] = Thermostability: relative bioluminescence activity after 30 min incubation; assay type: physicochemical; details: for Thermostability, luminescence activity relative to wt-aequorin: CLZ-f; for less activity compared to wt-aeq (thermostability): after incubation at 30 and 40° C.
Protocol: Thermostability of aequorin and redquorin mutant with increased affinity for calcium were compared to wt-aequorin (FIG. 5). The purified photoprotein samples were reconstituted with CLZ-f (as detailed earlier) and let to calibrate at room temperature (20-24° C.) for 20 min before taken the first measurement of total counts using saturating calcium solution (50 mM Tris-HCl, 100 mM CaCl2, pH 7.5). Samples were then incubated at two different temperatures (30 to 40° C.) for 30 min, and let equilibrate at room temperature for 15 minbefore taken the second measurement of total counts in the sample. The relative bioluminescence activity at each temperature was calculated by the ratio 2nd counts (at target T° C.)/1st counts (at initial T° C.) multiplied by 100.
Table 6 highlights the analysis of thermostability data obtained at two temperatures for aequorin and redquorin mutants, as well as CitA and GA. The values represent the degree of change in luminescence activity compared to wt-aeq, at each temperature. All values are relative to wt-aequorin (at each temperature) and were calculated by dividing the obtained data for each mutant/variant by the data for wt-aeq (as reference). The data were taken from FIG. 5.

[3] = CLZ-f, L/Lmax compared to Aeq-wt
[4] = aequorin proteins reconstituted with CLZ-f, sigmoidal curve fit, mean ± SD, n at least 3

EC50 ([1]; CLZ-f, redquorin series, CitA, GA): 284 ± 30 nM
EC50 ([1]; CLZ-native, redquorin series, CitA, GA): 605 ± 16 nM
B1: Redq/QT + AT: aporedquorin mutant Q159T + A179T (SEQ ID NO:24) (protein)
chain: MVSKGEEVIKEFMRFKVRMEGSMNGHEFEIEGEGEGRPYEGTQTAKLKVTKGGPLPFAWDILSPQFMYGSKAYVKHPADIPDYKKLSFPEGFKWERVMNFEDGGLVTVTQDSSLQDGTLIYKVKMRGTNFPPDGPVMQKKTMGWEASTERLYPRDGVLKGEIHQALKLKDGGHYLVEFKTIYMAKKPVQLPGYYYVDTKLDITSHNEDYTIVEQYERSEGRHHLFLGHGTGSTGSGSSGTASSEDNNMAVIKEFMRFKVRMEGSMNGHEFEIEGEGEGRPYEGTQTAKLKVTKGGPLPFAWDILSPQFMYGSKAYVKHPADIPDYKKLSFPEGFKWERVMNFEDGGLVTVTQDSSLQDGTLIYKVKMRGTNFPPDGPVMQKKTMGWEASTERLYPRDGVLKGEIHQALKLKDGGHYLVEFKTIYMAKKPVQLPGYYYVDTKLDITSHNEDYTIVEQYERSEGRHHLFLSGFDNPRWIGRHKHMFNFLDVNHNGKISLDEMVYKASDIVINNLGATPEQAKRHKDAVEAFFGGAGMKYGVETDWPAYIEGWKKLATDELEKYAKNEPTLIRIWGDALFDIVDKDQNGAITLDEWKAYTKAAGIIQSSEDCEETFRVCDIDESGTLDVDEMTRQHLGFWYTMDPTCEKLYGGAVP
modifications: mutant aequorin
Relative intensity at pCa 6.5 ([1]; CLZ-f, relative to Redq): 25.6
Relative intensity at pCa 7.2 ([1]; CLZ-f, relative to Redq): 9.0
Relative intensity at pCa 6.5 ([1]; CLZ-native, relative to Redq): 18.3
Relative intensity at pCa 7.2 ([1]; CLZ-native, relative to Redq): 14.1
Thermostability, luminescence activity relative to wt-aequorin ([2]; 30° C. for 30 min): 0.96
Thermostability, luminescence activity relative to wt-aequorin ([2]; 40° C. for 30 min): 1.03

EC50 [1, 4]: 322 nM
B2: S157D: apoaequorin mutant, serine 157 replaced by aspartic acid (SEQ ID NO:12) (protein)
chain: SKLTSDFDNPRWIGRHKHMFNFLDVNHNGKISLDEMVYKASDIVINNLGATPEQAKRHKDAVEAFFGGAGMKYGVETDWPAYIEGWKKLATDELEKYAKNEPTLIRIWGDALFDIVDKDQNGAITLDEWKAYTKAAGIIQSSEDCEETFRVCDIDEDGQLDVDEMTRQHLGFWYTMDPACEKLYGGAVP
modifications: mutant aequorin
Relative intensity at pCa 6.5 [1, 3]: 6.0
Relative intensity at pCa 7.2 [1, 3]: 2.2
Thermostability, luminescence activity relative to wt-aequorin ([2]; 30° C. for 30 min): 0.77
Thermostability, luminescence activity relative to wt-aequorin ([2]; 40° C. for 30 min): 0.71
less activity compared to wt-aeq (thermostability) [2]: up to 29%

EC50 [1, 4]: 216 nM
B3: QD + AT: apoaequorin double mutant Q159D + A179T (SEQ ID NO:17) (protein)
chain: B2 chain with D157S, Q159D, A179T
modifications: mutant aequorin
Relative intensity at pCa 6.5 [1, 3]: 58.5
Relative intensity at pCa 7.2 [1, 3]: 60.8
Thermostability, luminescence activity relative to wt-aequorin ([2]; 30° C. for 30 min): 1.05
Thermostability, luminescence activity relative to wt-aequorin ([2]; 40° C. for 30 min): 1.07

EC50 [1, 4]: 295 ± 17 nM
B4: QD + ND: apoaequorin double mutant Q159D + N121D (SEQ ID NO:13) (protein)
chain: B2 chain with N121D, D157S, Q159D
modifications: mutant aequorin
Relative intensity at pCa 6.5 [1, 3]: 29.0
Relative intensity at pCa 7.2 [1, 3]: 41.7
Thermostability, luminescence activity relative to wt-aequorin ([2]; 30° C. for 30 min): 0.81
Thermostability, luminescence activity relative to wt-aequorin ([2]; 40° C. for 30 min): 0.81
less activity compared to wt-aeq (thermostability) [2]: 20%

EC50 [1, 4]: 400 ± 14 nM
B5: N121D: apoaequorin mutant, asparagine 121 replaced by aspartic acid (SEQ ID NO:9) (protein)
chain: B2 chain with N121D, D157S
modifications: mutant aequorin
Relative intensity at pCa 6.5 [1, 3]: 4.9
Relative intensity at pCa 7.2 [1, 3]: 2.1
Thermostability, luminescence activity relative to wt-aequorin ([2]; 30° C. for 30 min): 0.81
Thermostability, luminescence activity relative to wt-aequorin ([2]; 40° C. for 30 min): 0.82
less activity compared to wt-aeq (thermostability) [2]: 19%

From patent US20180319855A1, “GENETICALLY MUTATED AEQUORIN-BASED BIOSENSORS WITH EXTRA SENSITIVITY TO CALCIUM AND IMPROVED BIOLUMINESCENCE INTENSITY” (CENTRE NATIONAL DE LA RECHERCHE SCIENTIFIQUE (CNRS), priority 2015, published 2018)
